Sequences and labels used below:
B1: TPR t1 (parent)
chain: GACCAAUCUGCCCUCAGAGCUCGAGAACAUCUUCGGAUGCAGAGGAGGCAGGCUUCGGUGGCGCGAUAGCGCCAACGUCCUCAACCUCCAAUGCAUCCCACCACAUGAUGAUGCCUGAAGAGCCUUGGUUUUUUG

This series covers variants of B1. Nature of the series: polymerase ribozyme fitness, log enrichment relative to wild type (log ratio); higher = more active; in vitro selection for triplet polymerase activity. Put shortly:
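Frozen incubation at −7 °C formed the core of a single, triplicate in vitro selection round applied to PCR-built, transcribed mutant libraries of each subunit of a heterodimeric triplet polymerase ribozyme. Extended constructs were gel-excised, captured with streptavidin beads and amplified by RT-PCR, and input and output libraries were Illumina-sequenced with a filter of ≥10 input reads and ≥1 read per output. Fitness is the logarithm of genotype enrichment relative to wild-type enrichment, with inverse-variance-weighted replicate averaging, and the logarithm is base 2.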
For GACCGAUCUGCCCUCAGAGCUCGAGAACAUCUUCGGAUGCAGAGGAGGCAGGCUUCGGUGGCGCGAUAGGUCCAACGUCCUCAACCUCCAAUGCAUCCCACCACAUGAUGAUGCCUGAAAAGCCUUGGUUAUUUG, the “polymerase ribozyme fitness (log ratio)” value is -4.58.

With GACCAAUCUGCCCUCAGAGCUCGAGACCAUCUUCGGAUGCAGAGGAGGCAGGCUUAGGUGGCGCGAUAGCGCCAAGGUCCUCAACCUCCAAUGCAUCCCACCACAUGAUGAUGCCUGAAGAGCCUUGGUUUUUUG, the “polymerase ribozyme fitness (log ratio)” value was -3.81.

Turning to GACCAAUCUGCCCUCAGAGCUCGAGAACAUCUUCGGAUGCAGAGGAGGCAGGCUUCGGUGGCGCGAUAGCGCCAACGUCCUCAACCUCCAAUGCAUCCCACCACAUGAUGAUGCCUCAAGAGCAUUGGUUUUUUG, the “polymerase ribozyme fitness (log ratio)” value is -1.5.

Consider GACCAAGUUGCCCUCAGAGCUCGAGAACAUCUUCGGAUGCAGAGGAGGCAGGCUUCGGUGGCGCGAUAGGGCCAACGUCCUCAACCUCCAAUGCAUCCCACCACAUGAUGAUGCCUGAAGAGCCUUGGUUUUUUG, for which the “polymerase ribozyme fitness (log ratio)” value is -1.52.

Take GACCAAUCUGCCCUCAGAGCUCGAGAACAUCUUCGGAUGCAGAGGAGGCACGCUUCGGUGUCGCGAUAGCGCCAACGUCCUCAACCUCCAAUGCAUCCCACCACAUGAUGAUGUCUGAAGAGCCUUGGUUUUUUG: the “polymerase ribozyme fitness (log ratio)” value is -6.08.

Regarding GACUAAUCUGCCCUCAGAGCUCGAGAACAUCUUCGGAUGCAGAGGAGGCAGGCAUCGGUGGGGCGAUAGCGCCAACGUCCUCAACCUCCAAUCCAUCCCACCACAUGAUGAUGCCUGAAUAGCCUUGGUCUUUUG, the “polymerase ribozyme fitness (log ratio)” value was -5.69.

In the case of GACCAAUCUGCCCUCAGAGCUCGAGAACAUCUUCGGAUGCAGAGGAGGCAGGCUUCGGUGGCCCGAUAGCGCCAACGUCCUCAACCUCCAAUUCAUCCCACCACAUGAUGAUGCCUGAAGAGCCUUGGUUUUUUG, the “polymerase ribozyme fitness (log ratio)” value was -1.7.

Regarding GACCAAUCUGCCCUCAGAGCCCGAGAACAUCUUCCGAUGCAGAGGAGGCAGGCUUCGGUGGCGCGAUAGCGCGAACGUCCUCCACCUCCAAUGCAUCCCACCACAUGAUGAUGCCUGAAGAGCCUUGGUUUUUUG, the “polymerase ribozyme fitness (log ratio)” value was -5.87.

For the variant GAACAAUCUGCCCUCAGAGCUCGAGAACAUCUUCGGAUGCAGAGGAGGCAGGUUACGGUGGCGCGAUAGCGCAAACGUCCUCAACCUCCAAUGCAUCCCACCACAUGAUGAUGCCUAAAGAGCCUUGGUUUUUUG, the “polymerase ribozyme fitness (log ratio)” value is -4.29.

For GACCAAUCUGCCCUCAGAGCUCGAGAACAUCUUCGGAUGCAGAGGAGGCAGGCUUCGGUGGCGCGAUAGCGCCGACGUCCUCAACCUCCAAUGCAUCCCACCACAUGAUGAUGCCUGAAUAGCCUUGGUUUUUUC, the “polymerase ribozyme fitness (log ratio)” value came to 0.597.

On to GACCAAUCUGCCCUCAGAGCUCGAGAACAUCUUCAGAUGCAGAGGUGGCAGGCUUCGGUGGCGCGAUAGCGCCAACGUCCUCUACCCCCAAUGCAUCCCACCAUAUGAUGAUGCCUGAAGAGCCUUGGUUUUUUG, for which the “polymerase ribozyme fitness (log ratio)” value was -4.09.

With GACCAAUAUGCCCUCAGCGCGCGAGAACAUCUUCGGAUGCAGAGGAGGCAGGCUUCGGUGGCGCGAUGGCGCCAACGUCCUCAACCUCCAAUGCAUCCCACCACAUGAUGAUGCCUGAAGAGCCUUGGUUUUUUG, the “polymerase ribozyme fitness (log ratio)” value was -6.09.

For the variant GACCAAUCUGCCCUCAGCGCUCGAGAACAUCUUCGGAUGCAGAGGAGGCAGGCUUCGGUGACGCGAUAGCGCCAACGUCCUCAACCUCCAAUGCAUCCCACCACAUGUUGAUGCUUGAAGAGUCUUGGUUUUUUG, the “polymerase ribozyme fitness (log ratio)” value is -6.75.

For the variant GACCACUCUGCCCUCAGAGCUCGAGAACAUCUUCGGAUGCAGAGGAGGCCGGCUUCGGCGGCGCGAUAGCGUCAACGUCCUCAACCUCCAAGGCAUCCCACCACAUGAUGAUGCCUGAAGAGCCUUGGUUUUUUG, the “polymerase ribozyme fitness (log ratio)” value is -4.39.

Take GACCAAUCUGCCCUCAGAGCUCGAGAACAUCUUCGGAUGCAGAGGAGGCAGGCUUCGGUGGCGCGAUAGCGACAACGUCCUCAACCUCCAAAGCAUCCCACCACAUGAUGAUGCCUGAAGAGCCUUGGUUUUUUG: the “polymerase ribozyme fitness (log ratio)” value is -2.67.

With GACCAAUCUGCCCUCAGAGCUCGAGAACAUCUUCGGAUGCAGAGGAGGCAGGCUUCGGUGGCGCGAUAGCGCCAACGUCCUCAACCUCCAAUGCAUCCCACCACAUGACGAUGCCUGUAGAGCCUUGGUUUUUUG, the “polymerase ribozyme fitness (log ratio)” value was -4.34.

For the variant GACCAAUCUGCCCUCAGAGCUCGAGAACAUCUUCGGAUGCAGAGGAGGCAGGCUUCGGUGUCGCGAUAGCGCCAACGUCCUCAACCUCCAAUGCUUCCCACCACAUGAUGAUGCCUGAAGAGCCUUGGUUUUUUG, the “polymerase ribozyme fitness (log ratio)” value is -0.221.

With GACCAAUCUGCCCUCAGAGCUCGAGAACAUCUUCGGAUGCAGAUGAGACAGGCUUCGGUGGCGCGAUAGCGCCAACGUCCUCAACUUCCAAAGCAUCCCACCACAUGAUGAUGCCUGAAGAGCCUUGGUUUUUUG, the “polymerase ribozyme fitness (log ratio)” value is -4.3.

Take GACCAAUCUGCCCUCAGAGCUCGAGAACAUCUUCGGAUGCAGAGGAGGCAGGCUUCGGUGGCGUGAUAGCGCCAACGUCCUUAACCUCCAAUGCGUCCCACCACAUGAUGAUGCCUGAAGAGCCUUGGUUUUUUG: the “polymerase ribozyme fitness (log ratio)” value was -0.455.

In the case of GACCAAUCUGCGCUCAGAGCUCGAGAACAUCUUCGGAUACAGAGGAGGCAGGCUUCGGUGGCGCGAUAGCGCCAACGUCCUCAACCUCAAAUGCAUCCCACCACACGAUGAUGCCUGAAGAGCCUUGGUUUUUUG, the “polymerase ribozyme fitness (log ratio)” value was -2.19.

On to GACCAAUCUGCCCUCAGAGCUCGAGAACAUCUUCGGAUGCAGAGGAGGCAGGCUUCGGUGGCGCGAUAGCGCCAACGUCCUCAACCUCCAAUGCAUCCAACCACAUGAUGAUGCCUGAACAGCCUUGGUUUUUUG, for which the “polymerase ribozyme fitness (log ratio)” value was -3.95.

Take GACCAGUCUUCCCUCAGAGCUCGAGAACAUCUUCGGAUGCAGAGGAGGCAGGCUUUGGUGGCGCGAUAGCGCCAACGUCCUCAACCUCCAAUGUAUCCCACCACAUGAUGAUGCCUGAAGAGCCUUGGUUUUUUU: the “polymerase ribozyme fitness (log ratio)” value is -1.99.

For the variant GUCCAAUCUGCCCUCAGAGCUCGAGAACAUCUUCGGAUGUAGAGGAGGCAGGCUUCGGUGGCGCGAUAGCGCCAACGUCCUCAACCUCCAAUGCAUCCCACCACAUGAUGAUGCAUGAAGAGCCUUGGUUUUGUG, the “polymerase ribozyme fitness (log ratio)” value was -2.75.

Take GACCAAUCUGCCCUCAGAGCUCGAGAACAUCUUCGGAUGCAGGGGUGGCAGGCUUCGGUGGCUCGAUAGCGCCAACGUCCUCAACCACCAAGGCAUCCCACCACAUGAUGAUGCCUGAACAGCCUUGGUCUUUUG: the “polymerase ribozyme fitness (log ratio)” value is -6.

With GACAAAUCUGCCCUCAGAGCUCGAGAACAUCUUCGGUUGCAGAGGAGGCAGGCUUCGGUGGCGCGAUAGCGUCAACGACCUCAACCUCCAAUGCAUCCCACCACAUGAUGAUGCCUGAAGAGCCUUGGUUUUUUG, the “polymerase ribozyme fitness (log ratio)” value was -1.52.

As for GACCAAUCUGCCCUUAGAGCUCGGGAACAUCUUCGGAUGCGGAGGAGGCAGGCUUCGGUGGCGCGAUAGCGCAAACGUCCUCAACCUCCAAUGCAUCCCACCACAUGAUGAUGCUUGAAGAGCCUUGGUUUUUUG, the “polymerase ribozyme fitness (log ratio)” value is -2.38.

On to GACCAAUCUGCCCUCAGAGGUCGAGAACAUCUUCGGAUGCAGAGGAGGCAGGCUUCGGUGGCGCGAUAGCGCCAACGUCCUCAACCUCCAAUGCAUCCGACCACAUGAUCAUGCCUGAAGAGCCUUGGUUUUUUG, for which the “polymerase ribozyme fitness (log ratio)” value was -7.02.

With GACCAAUCAGCCCUCAGAGCUCGAGAACAUCUUCGGAUGCAGAGGAGGCAGGCUUCGGUGUCGCGAUAGCGCCAACGUCCUCAACCUCUAAAGCAUCCCACCACAUGAUGAUGCCUGAAGAGCCUUGGAUUUUUG, the “polymerase ribozyme fitness (log ratio)” value is -3.6.

As to GACCAAUCUGCCCUCAGAGCUCGAGAACAUCUUCGGAUGCAGAGGAGGCAGCCUUCGGUGGCGCGAUAGAGCCAACGUCCUCAACCUCCAAUGCAUCCCACCACAUGAUCAUGCCUGAAGAGCCUUGGUUUUUUG, the “polymerase ribozyme fitness (log ratio)” value was -6.64.

Take GACCAAUCUGCCCUCAGAGCUCGAGAACAUCUUCGGAUGCAGAGGAGGCAGGCUUCGGGGGCGCGAUAGCGACAACGUCCUCAACCUCCAAUGCAUCCCACCACAUGAUGAUGCCUGAAGAGCCUUGGUUUUUUG: the “polymerase ribozyme fitness (log ratio)” value was -2.02.

With GACCAAUCUGCCCUCAGAGCUCGAGAACAUCUUCGGAUGCAGAGGAGGCAGGCUUCGGUGGCGCGAUACCGCCAACGUCCUCAAACUCCAAUGCAUCCCACCACAUGAUGAUGCCUGAAGAGCCUUGGUUUUUUG, the “polymerase ribozyme fitness (log ratio)” value was -2.84.

On to GACCAAUCUGCCCUCAGAGCUCGAGAACAUCUUCGGAUGCAGAGGAGGCAGGCUUCGGUGGCGGGAUAGCGCCAACGCCCUCAACCUCCAAUGCAUCCCACCACAUGAUGAUGCAUGAAGAGCCUUGGUUUUUUG, for which the “polymerase ribozyme fitness (log ratio)” value is -5.99.

In the case of GACCAAUCUGCCCUCAGAGCUCGAGAACAUCUUCGGAUGCAGAGGAGGCCGGCUUCGGUGGCGCGAUAGUGCCAACGUCCUCAACCUCCAAUGCAUCCCACCACAUGAUGAUGCCUGAAGAGCCUUGGUUUUUUG, the “polymerase ribozyme fitness (log ratio)” value is -2.04.

Take GACCAAUCUGCCCUCAGAGCUCCAGAACAUCUUCGGAUGCAGAGGAGGGACGCUUCGGUGUCGCGAUAGCGCCAACGUCCUCAACCUCCAAUGCAUCCCACCACAUGAUGAUGCCUUAAGAGCCUUGCUUUUUUG: the “polymerase ribozyme fitness (log ratio)” value is -6.88.

As for GACCAAUCUGCCCUCAGAGCUCGAGAACAUCUUCGGAUGCAGAGGAGGCAGGCUUCGGUGGCGCGAUAGCGACAACGUCCUCAACCUCCAAUGCAUCCCACCACAUGAUGACGCCUGAAGAGCCUUGGUUUUUUG, the “polymerase ribozyme fitness (log ratio)” value worked out at 1.48.

In the case of GACCAAUCUGCCCUCAGAGCUCGCGAACAUCUUCGGAUGCAGUGGAGGAAGGCUUCGGUGGCGCGAUAGCGCCAACGUACUCAACCUCCAAUGCAUCUCACCACAUGAUGAUGUCUGAAGAGCCUUGGUUUUUUG, the “polymerase ribozyme fitness (log ratio)” value is -7.85.

With GACCAAUCUGCCCUCAGAGCUCGAGAACAUCUUCGGAUGCAGAGGAGGCAGGCUUCGGUGGCGCGAUAGCGCCAACGUCCUCAACCUCCAAUACAUCCCACCACAUGAUGAUGCCUGAAGAGCCUUGAUUUUUUG, the “polymerase ribozyme fitness (log ratio)” value was -1.95.

Regarding GACCAAUCUGCCCUCAGAGGUCGAGAACAUCAUCGGAUGCAGAGGAGGCAGGGCUCUGUGGCGCGAUAGCGCCAACGUCCUCAACCUCCAAUGCAUGCCACCACAUGAUGAUACCUGAAGAGCCUUGGUUUUUUG, the “polymerase ribozyme fitness (log ratio)” value was -6.61.

Regarding GACCAAUCUGCACUCAUAGCUCGAGAACAUCUUCGGAUGCAGUGGAGGCAGGCUUCGGUGGCGCGAUAGCGCCAACGUCCUCAACCUCCAAUGCAUCCCACCACAUGAUGAUGCCUGAAGAGCCUUGGUUUUUUG, the “polymerase ribozyme fitness (log ratio)” value is -4.46.

Regarding GACCAAUCUGCCCUCAGAGCUCGAGAACAUCUUCGGAUGCAGAAGAGGCAGGCUCCGGUGGCGCGAUAGCGCCAACGUCCACAACCUCCAAUGCAUCCCACCACAUGAUGAUGCCUGAAGAGCCUUGGUUUUUUG, the “polymerase ribozyme fitness (log ratio)” value was -2.83.

GACCAAUCUGCCCUCAGAGCUCGAGAACAUCUUCGGAUGCAGAGGAGGCAGGCUUCGGUGGGGCGAUAGCGCCAACGUCCUCAACCUCCAAUGCAUCCCACCACAUGAUGAUGCCUGAUGAGCCUUGCUUUUUUG: the “polymerase ribozyme fitness (log ratio)” value is -4.08.

Take GACCAAUCUGCCCUCAGAGCUCGAGAACAUCUUCGGAUGCAGAGGAGGCAGGCUUCGGUGACGCGAUAGCGCCAACGGCCUCAAUCUCCCAUGCAUCCCACCACAUGAUGAUGCCUGAAGAGCCUUGGUUUUUUG: the “polymerase ribozyme fitness (log ratio)” value was -2.22.

These data come from the RNAGym collection of RNA variant scans (doi:10.1073/pnas.2313332121).
